The source of these data is the RNAGym collection of RNA variant scans (doi:10.1073/pnas.2313332121).

The chains are these.
B1: TPR t1 (parent)
chain: GACCAAUCUGCCCUCAGAGCUCGAGAACAUCUUCGGAUGCAGAGGAGGCAGGCUUCGGUGGCGCGAUAGCGCCAACGUCCUCAACCUCCAAUGCAUCCCACCACAUGAUGAUGCCUGAAGAGCCUUGGUUUUUUG

Variants of B1 are the subject of this data set. Description: polymerase ribozyme fitness, log enrichment relative to wild type (log ratio); higher = more active; in vitro selection for triplet polymerase activity. In a few lines: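 Fitness measures genotype enrichment against wild-type enrichment on a logarithmic scale, with inverse-variance-weighted averaging of replicates. The logarithm is base 2, and genotypes were kept only with ≥10 input reads and ≥1 read per output in Illumina sequencing. The sequenced libraries came from one triplicate in vitro selection round, including frozen incubation at −7 °C, of PCR-built, transcribed mutant libraries of each subunit of a heterodimeric triplet polymerase ribozyme.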
As to A26U G61C U96A C114U G117A, the “polymerase ribozyme fitness (log ratio)” value was -5.84.
For A27G G69C the value was -2.33; for A26U G52U, -4.03; for A27G G45A A83G U130G, -4.37.
In the case of A27G G60A, the “polymerase ribozyme fitness (log ratio)” value was -1.17.
For A27C G45U U106C the value was -4.75; for A27G C70U, -2.05.
For A27G C34U C72U C86A U112A U133C the value was -2.87; for A26U G58U, -4.66; for A27G C102U, -3.53.
Regarding A27C G39A C62A C124G, the “polymerase ribozyme fitness (log ratio)” value is -4.04.
For A27G A121G the value was 1.32.
A27C G39A A41G: the “polymerase ribozyme fitness (log ratio)” value is -4.08.
For A26U G63A the value was -5.09; for A26U G63U, -3.98; for A27G G61A, -1.92.
For A27C G57C the value was -3.36; for A27U A29G G122A, -3.63; for A27G C56U, -1.35.
For A27C U78C the value was -3.31; for A27G C49G G61C G63U C89G G117C, -6.39; for A27U A46U G61A C85U C94U, -3.53.
As for A27U A29G C72A, the “polymerase ribozyme fitness (log ratio)” value is -2.36.
Regarding A27G G113U, the “polymerase ribozyme fitness (log ratio)” value was -3.25.
For A27C G47U U106A C124A U130A U133A the value was -3.86; for A27G C34A, -4.06; for A27C G45C, -4.29.
For A26U G61U the value was -3.08; for A27C C88U, -3.46; for A26U G135U, -4.2.
On to A27U A37C, for which the “polymerase ribozyme fitness (log ratio)” value was -2.87.
A27C G36A G47C: the “polymerase ribozyme fitness (log ratio)” value is -4.8.
For A27G G51U G61A G127C the value was -6.98; for A27C C56U, -2.85.
For A26U G60A U130C the value was -2.93; for A27C A29U C56U U106A G122A C123G, -1.35.
On to A27G A29G G45A C56G C73A A75G C104A G107A G117U, for which the “polymerase ribozyme fitness (log ratio)” value was -6.73.
Turning to A27C C94G, the “polymerase ribozyme fitness (log ratio)” value is -3.57.
In the case of A27C C94A, the “polymerase ribozyme fitness (log ratio)” value is -3.32.
Consider A26U G113A, for which the “polymerase ribozyme fitness (log ratio)” value was -3.51.
For A27G U38A, the “polymerase ribozyme fitness (log ratio)” value is -3.17.
Consider A27C G42U C104A C114A G128A, for which the “polymerase ribozyme fitness (log ratio)” value was -7.58.
For A27G A46G C101A, the “polymerase ribozyme fitness (log ratio)” value is -3.22.
For A27G A43U G47A C98U the value was -5.67; for A26U G61U U87G C98G A121U, -6.57; for A27G C88U C115U, -4.85.
Regarding A27C G60C C73G, the “polymerase ribozyme fitness (log ratio)” value was -2.55.
Regarding A27G A43G G63C, the “polymerase ribozyme fitness (log ratio)” value is -4.38.
For A27G U87C, the “polymerase ribozyme fitness (log ratio)” value was -1.74.
For A27G A105U the value was -4.91.
For A26U U78A the value was -3.18; for A27C A118U, -2.67.
For A27C C88G U129C the value was -4.24; for A27C G77A, -4.66.
Consider A27C C40G, for which the “polymerase ribozyme fitness (log ratio)” value is -4.98.
A27C U55C C104U: the “polymerase ribozyme fitness (log ratio)” value is -3.54.
For A27G A90U U116C the value was -6.7; for A27C G110A, -4.22; for A27G A74C C115G, -6.8.
Take A27C C124U: the “polymerase ribozyme fitness (log ratio)” value is -1.18.
For A26U U59G C62U the value was -4.33.
A26U U54C C86G A121U: the “polymerase ribozyme fitness (log ratio)” value was -0.876.
For the variant A27G G51U G58A U78C A84C, the “polymerase ribozyme fitness (log ratio)” value was -5.35.
For A27C A111U A118U G120A the value was -5.36; for A27U A74U U87A, -2.97; for A27C C62G, -4.48.
For A27C C62U the value was -3.48.
Regarding A26U G48C A50U C53U, the “polymerase ribozyme fitness (log ratio)” value was -4.37.
For the variant A27C G57U C124G, the “polymerase ribozyme fitness (log ratio)” value is -1.48.
With A27G G47C A100U, the “polymerase ribozyme fitness (log ratio)” value is -4.85.
For A27C C86A the value was -4.06; for A27C C53A C82U, -4.15.
For A26U G51A U54A G69C G117C the value was -7.56.
For A27G G58A A75G the value was -2.58; for A27G C62A, -2.85; for A27G A95U, -2.82.
As to A27G C28U U116C U130C, the “polymerase ribozyme fitness (log ratio)” value was -5.27.
In the case of A27G C56G C89U G110U, the “polymerase ribozyme fitness (log ratio)” value was -3.06.
Take A27U A83U: the “polymerase ribozyme fitness (log ratio)” value is -3.7.
For A27C C82U U96G U125A U129G the value was -5.35.
For A27G C64U G77U C85A U130C the value was -4.3.
For A27G C40U the value was -2.39; for A27U A46G C72U G120A, -2.7.
Take A27G C56A C104U: the “polymerase ribozyme fitness (log ratio)” value was -2.14.
